Experimental data taken from patent US11351270B2, “Junctophilin-2 fragments and uses therefor” (University of Iowa Research Foundation, priority 2016, dated 2022).
Peptide text beside a SMILES is read from it. * marks the point of attachment. Cbz = O=C(OCc1ccccc1)*; CH2F = FC*

What was measured:
human calpain I = target: T1, human calpain I (Homo sapiens, UniProt P07384); assay: In vitro calpain-mediated proteolysis reaction; assay type: biochemical; conditions: for JP2 degradation by calpain I: WT mouse heart lysates, 3 mM free Ca2+, Z-LLY-FMK 20 μM, EDTA 5 mM
T1 construct: purchased Calbiochem
T1 sequence (P07384 1-714): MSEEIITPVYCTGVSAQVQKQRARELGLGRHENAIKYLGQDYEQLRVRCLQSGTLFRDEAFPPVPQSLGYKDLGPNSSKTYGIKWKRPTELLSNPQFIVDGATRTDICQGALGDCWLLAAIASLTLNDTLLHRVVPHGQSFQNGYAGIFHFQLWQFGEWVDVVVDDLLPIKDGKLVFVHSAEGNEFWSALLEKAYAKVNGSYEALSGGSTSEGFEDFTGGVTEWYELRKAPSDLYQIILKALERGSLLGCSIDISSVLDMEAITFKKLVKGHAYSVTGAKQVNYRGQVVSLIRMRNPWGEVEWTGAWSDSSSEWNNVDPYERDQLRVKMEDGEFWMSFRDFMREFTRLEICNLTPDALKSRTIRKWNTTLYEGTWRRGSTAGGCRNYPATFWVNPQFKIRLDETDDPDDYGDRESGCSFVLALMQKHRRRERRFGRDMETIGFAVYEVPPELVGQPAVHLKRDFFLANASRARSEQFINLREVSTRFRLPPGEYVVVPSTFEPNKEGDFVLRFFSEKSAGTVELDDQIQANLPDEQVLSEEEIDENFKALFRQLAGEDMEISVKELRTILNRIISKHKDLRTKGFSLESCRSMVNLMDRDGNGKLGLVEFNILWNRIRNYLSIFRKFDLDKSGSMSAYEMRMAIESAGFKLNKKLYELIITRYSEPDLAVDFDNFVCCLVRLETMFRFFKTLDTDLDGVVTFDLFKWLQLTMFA
T1 sequence (P04632 1-268 partner): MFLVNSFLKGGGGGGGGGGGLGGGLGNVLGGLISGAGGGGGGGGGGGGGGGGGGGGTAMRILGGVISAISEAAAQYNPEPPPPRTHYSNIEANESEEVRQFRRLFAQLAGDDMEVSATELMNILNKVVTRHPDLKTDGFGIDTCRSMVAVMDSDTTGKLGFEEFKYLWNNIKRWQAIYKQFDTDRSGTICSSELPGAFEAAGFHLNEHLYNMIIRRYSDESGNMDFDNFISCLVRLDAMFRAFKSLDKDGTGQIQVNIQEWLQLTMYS
Method: Mouse and human heart tissues as well as HEK 293T cells (obtained from the ATCC and cultured according to the protocol of the manufacturer) overexpressing tagged JP2 were washed with PBS and homogenized in lysis buffer (20 mM Tris-HCl, 150 mM NaCl, 2 mM EDTA, and 1% Triton X-100), followed by sonication. Homogenates were centrifuged for 10 minutes at 14,000 rpm at 4° C. Protein content in the supernatant was determined using the BCA assay (Thermo Scientific). Cell extracts were diluted in ice-cold calpain reaction buffer (135 mM NaCl, 5 mM KCl, 1 mM MgCl2, 10 mM glucose, 10 mM Hepes (pH 7.25), 2 mM lactacystin, and 10 mM 2-mercaptoethanol) to a concentration of 4 mg protein/ml. Just prior to starting the protease reaction, CaCl2 was added to achieve a final concentration of 3 mM free Ca^2+ (in the presence of EDTA), as calculated by winmaxc32 (Stanford University). For some experiments, the free Ca^2+ concentration was adjusted to 500 μM, as calculated by winmaxc32. Purified human calpain I (Calbiochem) was added at a concentration of 1 mg of total protein/1 μg of calpain I. Reactions without Ca^2+ or without purified calpain I were used as controls. Reactions were incubated at 30° C. for the indicated time and stopped by adding EDTA to a final concentration of 10 mM and incubating for 5 minutes at 95° C. The reaction products were subjected to Western blotting.

JP2-KD cardiomyocytes = assay: Confocal Ca2+ imaging in JP2-KD cardiomyocytes after adenoviral expression; assay type: cell-based, mouse; conditions: 1-Hz field stimulation
Source text: Specifically, conditional shJP2 mice (provided by Dr. Wehrens) (van Oort et al., 2011) were crossed with mice carrying the cardiac-specific α-myosin heavy chain promoter upstream of Cre (% MHC-Cre, also FVB-Tg(Myh6-cre)2182Mds/J, The Jackson Laboratory). The shJP2 mice were maintained on a C57BL/6 background for more than 10 generations. The αMHC-Cre mice were maintained on an FVB background. PCR was used to genotype the offspring. The near complete depletion of JP2 protein in JP2-KD (αMHC-Cre X shJP2) hearts has been reported recently (Chen et al., 2013). JP2-KD mice were sacrificed at 2 months of age for isolation and culture of ventricular cardiomyocytes as described below.
Genecarrior-1 (Epoch Lab) was used to transfect plasmids into HEK293T cells. Isolation and culture of cardiomyocytes were performed as described previously (Guo et al., 2012). […] Ca^2+ Imaging experiments were performed 40 hours after adenoviral infection.
Cells were loaded with Rhod-2AM at 37° C. for 20 minutes, followed by washing with Tyrode's solution at room temperature for 15 minutes before Ca^2+ imaging. Confocal images were acquired using a ×63, 1.3 numerical aperture oil immersion objective mounted on a Zeiss LSM 510 confocal microscope. Confocal line scanning was used to record Ca^2+ signals. Steady-state Ca^2+ transients were recorded in Tyrode's solution containing 1.8 mM Ca^2+ under field stimulation of 1 Hz. At least five steady-state transients for each cell were analyzed and averaged to represent Ca^2+ signals of the cell. Ca^2+ imaging data were analyzed by using a home-complied software, CaTeasy, which is coded in MATLAB 2013a (Mathworks). Briefly, the program normalizes Ca^2+ transient images on a column-by-column basis (512 columns/image). The characteristic parameters of normalized transients were detected automatically. The firing time of every scanning pixel was detected column by column on the basis of the maximum local variability of pixel intensity. The profile of the point-to-point firing time was indicated by a red line overlapping on the Ca^2+ image. Index of desynchronization, defined by the mean absolute deviation of firing time of each scanning pixel (with every 8 pixels binned), was used to evaluate the dyssynchrony of Ca^2+ transients. This automated software for calcium transient analysis is available upon request.

RyR2 and Cav1.2 = assay: Coimmunoprecipitation with E-C coupling channels; assay type: binding, mouse; conditions: anti-HA immunoprecipitation
Source text: FIGS. 5A-H. JP2 truncations are nonfunctional in regulating Ca^2+ transients. A) An antibody against the HA tag was used to reveal the localization of adenoviral expression of tagged full-length JP2 and truncations, as indicated, in adult wild-type cardiomyocytes. All the three version of JP2 can be localized in the striated pattern. B) Full-length JP2 and JP2(1-565) forms complexes with RyR2 and Cav1.2 In vivo. An antibody against HA was used for immunoprecipitation […]. The RyR2 and Cav1.2 that were pulled down were detected by Western blot analysis. […] IB, immunoblot. C) Adenovirus-mediated expression of full-length JP2, FLAG-JP2(1-565)-HA, and JP2(566-end)-HA in JP2-KD) cardiomyocytes. D) Representative steady-state Ca^2+ transients under 1-Hz field stimulation. The fluorescence intensity (F) of Ca^2+ imaging was normalized to the baseline (FO). The red lines overlapping on Ca^2+ imaging show the profile of the moment of Ca^2+ transient firing on the scanning line in a point-by-point way. A straighter line means better synchronization of the Ca^2+ transients. Note that expression of full-length JP2, but not JP2 truncations, improves the amplitude and synchronization of Ca^2+ transients. E-G) Summary of Ca^2+ transient amplitude, index of desynchronization (mean absolute deviation of firing time), and duration of 50% decay (T5) (n=68, 70, 70, and 52 for Ad-Empty, Ad-JP2, […], and Ad-JP2(566-end), respectively). Only full-length JP2 Improves the amplitude, synchronization, and decay of Ca^2+ transients. H) Summary of SR Ca^2+ content, which was assessed by caffeine-induced SR Ca^2+ release (n=17, 17, 17, and 12 for Ad-Empty, Ad-JP2, Ad-JP2(1-565), and Ad-JP2(566-end), respectively). **, p<0.01 versus indicated groups; N.S., not significant.
Cleavage at the primary calpain proteolysis site (Arg-565/Thr-566) splits apart the C-terminal SR-binding TM domain and N-terminal plasma membrane-binding MORN domains of JP2. […]

TATA box DNA sequences = assay: Gel shift assay with TATA box sequences; assay type: binding; conditions: GST-purified protein; cMyc or CMV promoter sequences
Source text: FIGS. 11A-H. JP2NT is a TATA-box binding protein enriched at transcription start site (TSS) and interacts with basic transcription machinery. […] C) 293T cells were transfected with HA-tagged JP2NT, followed by crosslinking-reversal immunoprecipitation with anti-HA and immunoblotting with anti-polymerase II (Rpb1) or anti-TATA box binding protein (TBP). D-H) JP2NT binds to TATA box DNA sequences in vitro. D-E) Gel shift assays of GST-purified JP2NT binding to WT (D). or mutated TATA box-containing sequences (E) derived from the cMyc promoter. F) Summary of the results of gel shift assays with various of TATA box variants or mutants. Mutation of the core TATA sequences abolished the interaction with GST-JP2NT. G) Deletion of the ARR, but not the N-terminal MORN domains, eliminated JP2NT binding to the TATA box sequence. H) The peptide JP2^331-405 containing the ARR specifically binds to WT TATA box sequence.
TBP specifically binds to TATA boxes, eukaryotic core cis-regulatory elements localized at transcription start site. […] This interaction was abrogated by mutation of the TATA box elements (FIGS. 11E&G and 17B). It was concluded that JP2NT is a DNA binding protein, binding to consensus TATA box represented as TATAA(A/T) or TATATA (FIG. 11F).

[1] = test system: MEF2C Response Element (MRE) from the desmin enhancer; assay: Gel shift assay with MEF2 response element; assay type: binding; conditions: purified protein
Source text: FIGS. 12A-E. JP2NT represses MEF2-mediated transcription by competing for the MEF2 Response Element (MRE). A) Enrichment of MEF2 binding motifs in ChIP-seq dataset. B) Gel shift assay of JP2NT binding to a desmin promoter-derived DNA sequence containing a WT or mutated MRE in vitro. C) Co-immunoprecipitation of HA-tagged JP2NT binding to MEF2C or Histone H3. D) & E) MEF2 activity assays in 293T cells co-transfected with luciferase under the control of an MRE, MEF2C and WT JP2NT (D) or a mutant lacking the ARR (E, JP2NT^ΔARR). n≥3 independent batches of cells; in each batch of experiments, 3 replicates were performed for each transfection; **p<0.01 vs. Ad-Empty.
The MEF2 family, master regulators of hypertrophic genes in cardiomyocytes, binds to the A/T enriched consensus sequence (C/TTA(A/T)4TA G/A), which shares the same core sequence with TATA box. Thus, it was hypothesized that JP2NT directly interacts with MEF2 binding sites.

O=C(O)CN(CCN(CC(=O)O)CC(=O)O)CC(=O)O [EDTA]
JP2 degradation by calpain I (human calpain I): inhibited JP2 degradation

CC(C)CC(NC(=O)OCc1ccccc1)C(=O)NC(CC(C)C)C(=O)NC(Cc1ccc(O)cc1)C(=O)CF (stereo not drawn) [Z-LLY-FMK] (Cbz-Leu-Leu-Tyr-CH2F; configuration not given here)
JP2 degradation by calpain I (human calpain I): inhibited JP2 degradation
JP2 cleavage products and full-length JP2 (human calpain I; lysates of 293T cells overexpressing FLAG/HA-tagged JP2, 3 mM and 500 μM Ca2+): substantial reduction in cleavage products and preservation of full-length JP2

B1: JP2(566-end): C-terminal JP2 truncation, tagged with HA at the C terminus (protein)
chain: TGPPEPPPLEDEQEPEPEPEPEVRRSDSAPPSPVSATVPEEEPPAPRSPVPAKQATLEPKPIVPKAEPKAKARKTEARGLSKAGAKKKGRKEVAQAKEAEVEVEEVPNTVLICMVILLNIGLAILFVHLLTYPYDVPDYA
restoration of Ca2+ transients (JP2-KD cardiomyocytes): failed to restore
interaction with RyR2 and Cav1.2 (RyR2 and Cav1.2): not

B2: GST-JP2^331-405: purified peptide containing the ARR; DNA binding domain of JP2NT (protein, UniProt Q9ET78 331-405, looked up, fragment)
chain: EEGKYRHNVLVKGTKRRVLPLKSSKVRQKVEHGVEGAQRAAAIARQKAEIAASRTSHAKAKAEAAEQAALAANQE
modifications: GST tag
binding to TATA box (TATA box DNA sequences): specifically bound to the consensus but not mutant TATA box
interaction with MEF2C Response Element (MRE) [1]: interacts
